Here are results for 4 molecules from patent US20240076389A1 (NATIONAL RESEARCH COUNCIL OF CANADA, published 2024).

For test [1], the target named is T1, mouse AXL extracellular domain (Sino cat. 51026-M08H) (mouse, UniProt Q00993 19-445).
T1 construct: extracellular domain; Bought protein; also called mouse AXL ECD
T1 sequence (looked up): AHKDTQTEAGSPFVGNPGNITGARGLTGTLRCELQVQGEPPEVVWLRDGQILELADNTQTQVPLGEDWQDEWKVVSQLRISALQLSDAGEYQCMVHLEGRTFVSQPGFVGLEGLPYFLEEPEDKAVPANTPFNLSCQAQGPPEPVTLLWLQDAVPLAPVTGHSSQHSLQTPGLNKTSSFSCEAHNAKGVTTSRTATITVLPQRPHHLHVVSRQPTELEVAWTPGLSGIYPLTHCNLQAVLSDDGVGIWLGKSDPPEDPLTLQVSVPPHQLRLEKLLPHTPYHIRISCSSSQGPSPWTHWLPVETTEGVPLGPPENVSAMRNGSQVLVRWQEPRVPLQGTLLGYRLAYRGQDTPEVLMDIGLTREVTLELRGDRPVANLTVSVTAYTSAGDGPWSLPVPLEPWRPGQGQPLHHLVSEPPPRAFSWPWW
Put plainly: ELISA on coated mouse AXL ECD (100 ng/well). The method, then:
(§1) ELISA. ELISAs against human, cyno and mouse AXL ECDs were conducted by immobilizing 100 ng of each protein in wells of Nunc MaxiSorp microplates overnight. Human AXL (aa 1-451) and cyno AXL (aa 1-449) were produced recombinantly as described in Example 10. Mouse AXL was purchased from Sino (cat. 51026-M08H). The next day, plates were blocked with 5% (w/v) dried milk in PBS. Murine mAbs (either hybridoma- or recombinantly-produced) or VHH-Fcs were diluted in PBS containing 1% BSA and 0.1% Tween-20 and added to wells for 2 hours at room temperature. Wells were washed 5× with PBS containing 0.1% Tween-20, then HRP-labeled protein A (diluted 1:1000 in PBS containing 1% BSA and 0.1% Tween™-20) was added to wells for 1 hour at room temperature. Wells were washed again 5× with PBS/0.1% Tween-20 and developed using TMB substrate. Absorbance was measured at 450 nm. As a positive control for mouse AXL binding, a commercial anti-mouse AXL mAb (clone 175128, R&D Systems MAB8541, rat IgG2A) was used and detected with donkey […] secondary antibody.
On the technique in general: In an ELISA, binding on a coated surface is turned into a signal by an enzyme label.

For test [2], the target named is T2, recombinant human AXL extracellular domain, C-terminally His8-tagged (rhAXL-ECD) (human, UniProt P30530 26-451).
T2 construct: Made in CHO cells; also called (rh)AXL-ECD His8; human AXL ECD
T2 sequence: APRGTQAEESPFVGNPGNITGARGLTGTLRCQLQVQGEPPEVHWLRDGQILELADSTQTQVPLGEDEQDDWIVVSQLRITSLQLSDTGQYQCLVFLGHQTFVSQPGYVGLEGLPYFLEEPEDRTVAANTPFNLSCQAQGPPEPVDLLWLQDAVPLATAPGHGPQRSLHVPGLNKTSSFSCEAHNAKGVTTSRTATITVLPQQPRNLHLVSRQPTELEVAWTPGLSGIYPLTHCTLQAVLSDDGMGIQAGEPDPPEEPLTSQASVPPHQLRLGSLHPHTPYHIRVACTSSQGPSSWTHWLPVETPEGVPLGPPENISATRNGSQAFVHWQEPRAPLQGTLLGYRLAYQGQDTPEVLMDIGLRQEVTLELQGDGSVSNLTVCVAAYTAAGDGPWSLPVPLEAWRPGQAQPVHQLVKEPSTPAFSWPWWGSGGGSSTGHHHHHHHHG
Put plainly: ELISA on coated AXL ECD (100 ng/well), HRP-protein A. The method, then:
as §1

The target in test [3] is T2, recombinant human AXL extracellular …. Put plainly: SPR Biacore T200, mAb captured on anti-Fc, AXL ECD flowed, multi-cycle kinetics. Here is the method:
(§2) Surface plasmon resonance. For murine mAbs, binding to human and cynomolgus AXL ECD was assessed using a Biacore T200 instrument. Briefly, either anti-mouse or anti-human Fc antibody was immobilized on a research-grade CM5 series S sensor chip using amine coupling in acetate buffer. Murine or recombinant chimeric murine-human mAbs (mouse VH/VL; human constant regions) were captured, then recombinant human or cyno AXL ECD was flowed over the surface at different concentration ranges (0.1-500 nM) depending on the antibody. The running buffer was PBS/Tween-20 and the flow rate 100 uL/min. All binding studies were performed at 25° C. Surfaces were regenerated using 10 mM glycine, pH 1.5.
On the technique in general: In SPR one partner is held on a chip, and binding of the other changes the refractive index at the surface.

The target in test [4] is T3, recombinant cynomolgus AXL extracellular domain (cynomolgus).
T3 construct: range 1-449; also called Cyno AXL; cyno AXL ECD
The test is described as above. Here is the method: as §2

Test [5] addresses T4, human AXL expressed on the cell surface of tumor cell lines (human, UniProt P30530 26-894).
T4 construct: whole, on cells; also called cell surface-expressed AXL; cell-based AXL
T4 sequence (looked up): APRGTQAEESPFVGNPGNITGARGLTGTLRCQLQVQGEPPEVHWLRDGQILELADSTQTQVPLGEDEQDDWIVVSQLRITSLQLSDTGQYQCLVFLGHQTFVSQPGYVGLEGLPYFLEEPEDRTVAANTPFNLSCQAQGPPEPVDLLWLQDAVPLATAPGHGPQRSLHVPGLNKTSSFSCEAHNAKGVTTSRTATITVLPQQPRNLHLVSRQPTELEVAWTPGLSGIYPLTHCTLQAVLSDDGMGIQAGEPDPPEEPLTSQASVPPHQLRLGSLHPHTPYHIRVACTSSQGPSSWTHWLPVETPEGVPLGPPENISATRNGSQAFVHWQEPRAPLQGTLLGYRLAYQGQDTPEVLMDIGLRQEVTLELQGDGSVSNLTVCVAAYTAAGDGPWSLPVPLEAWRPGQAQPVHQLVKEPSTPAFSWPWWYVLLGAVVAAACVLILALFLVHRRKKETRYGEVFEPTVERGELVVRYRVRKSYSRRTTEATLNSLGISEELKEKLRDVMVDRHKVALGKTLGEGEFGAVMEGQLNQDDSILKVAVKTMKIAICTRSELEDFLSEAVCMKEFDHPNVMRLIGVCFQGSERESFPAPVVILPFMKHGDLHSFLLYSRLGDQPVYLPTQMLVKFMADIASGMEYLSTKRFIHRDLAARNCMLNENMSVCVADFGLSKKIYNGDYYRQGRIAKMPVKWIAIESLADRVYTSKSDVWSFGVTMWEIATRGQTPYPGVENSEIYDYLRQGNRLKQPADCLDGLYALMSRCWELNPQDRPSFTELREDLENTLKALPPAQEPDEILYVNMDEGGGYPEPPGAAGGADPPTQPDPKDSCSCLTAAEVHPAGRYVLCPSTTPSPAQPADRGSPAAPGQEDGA
Put plainly: FACS on SKOV3 cells, apparent Kd, human Fc format. The method, then: (§3) FACS binding assay. Adherent cells were dissociated with non-enzymatic Sigma Cell Dissociation Solution (Cat. No. C5789). Cells suspensions were added to polypropylene, V-bottom 96-well plates and incubated for 2 hours on ice with primary antibodies at concentrations ranging from 100 nM to 0.001 nM or at a single dose of 100 nM (for the non-specific control). After incubation and washes, cells were incubated with fluorescently labeled secondary antibody (Alexa Fluor® 488 anti-human IgG from Jackson Cat. No 709-546-098) for 1 hour on ice, then washed. Cell viability was determined using Fixable viability dye 450 (20 min on ice). Stained cells were fixed in 1% formaldehyde at 4° C. and stored at 4° C. until acquisition which was performed the next day.
(§4) Binding of recombinant chimeric Abs to three cell lines was assessed by FACS as described above. The apparent Bmax and Kd determination is shown below in Table 14.

The target in test [6] is T1, mouse AXL extracellular domain (Sino …). Put plainly: ELISA on coated mouse AXL ECD (100 ng/well), VHH-Fc. The method, then: as §1
Test [7] deals with T4, human AXL expressed on the cell surface …. Description: FACS on NCI-H292 cells, apparent Kd, human Fc format. Here is the method:
as §3, §4

Test [8] has as its target T2, recombinant human AXL extracellular …. Description: ELISA on coated AXL ECD (100 ng/well), VHH-Fc, HRP-protein A. The method, then: as §1
Test [9] deals with T4, human AXL expressed on the cell surface …. Description: FACS on MDA-MB-231 luciferase cells, apparent Kd, human Fc format. Here is the method:
as §3, §4

In test [10] the target is T2, recombinant human AXL extracellular …. Put plainly: SPR, VHH-Fc captured, AXL ECD flowed, single-concentration kinetics (estimate). Here is the method: (§5) For VH Hs and VHH-Fcs, binding to human and cynomolgus AXL ECD was assessed using either a Biacore T200 instrument or a Biacore 3000 instrument. Either human AXL ECD or anti-human Fc antibody was immobilized on a research-grade CM5 series S sensor chip (T200, rhAXL ECD) or a C1 sensor chip (3000, anti-human Fc) using amine coupling in acetate buffer. VHH-Fcs were captured on anti-human Fc surfaces. Either monomeric VHHs (for rhAXL ECD surfaces) or human and cyno AXL ECD (for VHH-Fc surfaces) were flowed over the surfaces at different concentration ranges. Running buffers were HBS-EP (3000) and HBS-EP+(T200). Flow rates were 10-40 ul/min. All binding studies were performed at 25° C. Surfaces were regenerated using 10 mM glycine, pH 1.5.

In test [11] the target is T3, recombinant cynomolgus AXL …. The test is described as above. The method, then: as §5

B1: mIgG2 F149-4G4 (antibody, V domains shown)
VH: QIQLVQSGPELKKPGETVKISCKTSGYTFTYYGINWVKQAPGKGLEWMGWINTYLGEPTYADDFKGRFAFSLETSASTAYLQINNLRDEDMATYFCTRGTMSYSFDYWGQGTALTVSS
VL: QNVLTQSPAIMSASPGEEVTMTCRASSSVSSSYLHWYQQKSGASPKLWIYSTSKLASGVPARFSGSGSGTSYSLTISSVEAEDAATYYCHQYSGDPLTFGSGTKLEVK
notes: Printed as mIgG2 (mouse IgG2)
B1: in test [1], the binding result is “no binding”. Moreover, the EC50 – broadly, the concentration giving half of the maximal effect – in test [2] amounted to 15 nM. Further, in test [3], the Kd came to 1 nM; the off-rate constant (koff) (usually the first-order rate constant of dissociation) stood at 0.0012 s⁻¹; the kon (as a rule, the rate constant with which the complex forms) stood at 750000 M⁻¹ s⁻¹.

B2: mIgG2 F155-3C7 (antibody, V domains shown)
VH: QVQLQQPGTELVKPGASVKLSCKASGYIFTNFWINWVKQRPGQGLEWIGNIFPGSNSSNYNEKFKNKATLTVDKSSSTAYMHLSSLTSEDSAVYYCVRDYYGGSPDYWGQGTTLTVSS
VL: DIVMSQSPSSLAVSAGEKVTMSCKSSQSLLNSKTRKNYLAWYQQKPGQSPKLLIYWASTRESGVPARFTGSGSGTDFTLTISSVQAEDLAIYYCKHSYNLWTFGGGTKLEIR
notes: Printed as mIgG2 (mouse IgG2)
On to B2, for which the binding result in [1] was “no binding”. Further, the EC50 in test [2] was determined as 14 nM. In [3], the Kd was determined as 3 nM, the off-rate (koff) is 0.0018 s⁻¹ and the association rate constant (kon) came out at 560000 M⁻¹ s⁻¹. For the same molecule, in [4], the Kd is 25 nM, the koff was 0.0073 s⁻¹ and the kon is 290000 M⁻¹ s⁻¹.

B3: NRC-sdAb005-Fc (VHH-human IgG1 Fc fusion) (Fc fusion)
chain: QVKLEESGGGLAQAGGSLRLSCAASGSISSINTIGWFRQAPGKQRELVAASDSGANRNYADSVKGRFTISRDNAKNTVYLQMNNLKPEDTAIYYCRAWGTGTISTMYWGQGTQVTVSS
notes: VHH fused N-terminally to human IgG1 Fc; also called NRC-sdAb005-hIgG1; not shown: human IgG1 Fc
For B3, the Kd is 2.03 nM in [5]; 1.47 nM in test [7]; 1.47 nM in test [9]; 34 nM in test [10]; 35 nM in [11]. Moreover, the binding result in test [6] is recorded as “no binding”. Further, the EC50 in test [8] is 1 nM. Also, the off-rate constant (koff) in test [10] was 0.0041 s⁻¹; in test [11] it was 0.0046 s⁻¹. Moreover, the kon in test [10] is 120000 M⁻¹ s⁻¹; in [11], 130000 M⁻¹ s⁻¹.

B4: NRC-sdAb006-Fc (VHH-human IgG1 Fc fusion) (Fc fusion)
chain: QVKLEESGGGLVQAGASLRLSCVASESIFGFNTMGWYRQAPGNERELVASISNSKRTMYADSVKGRFTISRDNAKNTVNLQMNNLKPEDTAVYYCRAWGIITSATVYWGQGTQVTVSS
notes: VHH fused N-terminally to human IgG1 Fc; also called NRC-sdAb006-hIgG1; not shown: human IgG1 Fc
For B4, the Kd is 13.4 nM in test [5]; 2.12 nM in test [7]; 0.832 nM in test [9]; 24 nM in [10]; 26 nM in test [11]. Besides, the binding result in test [6] was “no binding”. In [8], the EC50 was 1 nM. In addition, the figures for the koff in test [10] and in test [11] were 0.0021 s⁻¹ and 0.0026 s⁻¹, respectively. For the same molecule, the association rate constant (kon) in test [10] is 89000 M⁻¹ s⁻¹; in [11], 100000 M⁻¹ s⁻¹.
